# According to the Human Domainome abundance scans (Beltran et al. 2025):
# ± gives the uncertainty stated by the source.
# Assay: abundance fitness (aPCA) (normalised: wild type 0, dead -1); higher = more abundant; growth selection in yeast, the domain comes from the species named
# Details: Homo sapiens
row,Substance,abundance fitness
1,"Lipoamide acyltransferase component of branched-chain alpha-keto acid dehydrogenase complex, mitochondrial L180D, P11182",-0.895 ± 0.16
2,"Lipoamide acyltransferase component of branched-chain alpha-keto acid dehydrogenase complex, mitochondrial L180E, P11182",-0.438 ± 0.047
3,"Lipoamide acyltransferase component of branched-chain alpha-keto acid dehydrogenase complex, mitochondrial L180F, P11182",-0.027 ± 0.095
4,"Lipoamide acyltransferase component of branched-chain alpha-keto acid dehydrogenase complex, mitochondrial L180G, P11182",-0.609 ± 0.041
5,"Lipoamide acyltransferase component of branched-chain alpha-keto acid dehydrogenase complex, mitochondrial L180H, P11182",-0.938 ± 0.17
6,"Lipoamide acyltransferase component of branched-chain alpha-keto acid dehydrogenase complex, mitochondrial L180I, P11182",-0.194 ± 0.11
7,"Lipoamide acyltransferase component of branched-chain alpha-keto acid dehydrogenase complex, mitochondrial L180K, P11182",-0.296 ± 0.2
8,"Lipoamide acyltransferase component of branched-chain alpha-keto acid dehydrogenase complex, mitochondrial L180M, P11182",0.008 ± 0.088
9,"Lipoamide acyltransferase component of branched-chain alpha-keto acid dehydrogenase complex, mitochondrial L180P, P11182",-0.557 ± 0.13
10,"Lipoamide acyltransferase component of branched-chain alpha-keto acid dehydrogenase complex, mitochondrial L180Q, P11182",-0.403 ± 0.12
11,"Lipoamide acyltransferase component of branched-chain alpha-keto acid dehydrogenase complex, mitochondrial L180R, P11182",-0.563 ± 0.046
12,"Lipoamide acyltransferase component of branched-chain alpha-keto acid dehydrogenase complex, mitochondrial L180V, P11182",-0.222 ± 0.039
13,"Lipoamide acyltransferase component of branched-chain alpha-keto acid dehydrogenase complex, mitochondrial L180W, P11182",-0.56 ± 0.047
14,"Lipoamide acyltransferase component of branched-chain alpha-keto acid dehydrogenase complex, mitochondrial L180Y, P11182",-0.079 ± 0.1
15,"Lipoamide acyltransferase component of branched-chain alpha-keto acid dehydrogenase complex, mitochondrial L188A, P11182",-0.494 ± 0.057
16,"Lipoamide acyltransferase component of branched-chain alpha-keto acid dehydrogenase complex, mitochondrial L188C, P11182",-0.388 ± 0.062
17,"Lipoamide acyltransferase component of branched-chain alpha-keto acid dehydrogenase complex, mitochondrial L188D, P11182",-0.535 ± 0.071
18,"Lipoamide acyltransferase component of branched-chain alpha-keto acid dehydrogenase complex, mitochondrial L188E, P11182",-0.391 ± 0.048
19,"Lipoamide acyltransferase component of branched-chain alpha-keto acid dehydrogenase complex, mitochondrial L188F, P11182",0.116 ± 0.39
20,"Lipoamide acyltransferase component of branched-chain alpha-keto acid dehydrogenase complex, mitochondrial L188G, P11182",-0.544 ± 0.036
21,"Lipoamide acyltransferase component of branched-chain alpha-keto acid dehydrogenase complex, mitochondrial L188H, P11182",-0.368 ± 0.094
22,"Lipoamide acyltransferase component of branched-chain alpha-keto acid dehydrogenase complex, mitochondrial L188K, P11182",-0.578 ± 0.052
23,"Lipoamide acyltransferase component of branched-chain alpha-keto acid dehydrogenase complex, mitochondrial L188M, P11182",-0.248 ± 0.054
24,"Lipoamide acyltransferase component of branched-chain alpha-keto acid dehydrogenase complex, mitochondrial L188N, P11182",-0.567 ± 0.095

row,Substance,abundance fitness
1,"Lipoamide acyltransferase component of branched-chain alpha-keto acid dehydrogenase complex, mitochondrial L188P, P11182",-0.412 ± 0.047
2,"Lipoamide acyltransferase component of branched-chain alpha-keto acid dehydrogenase complex, mitochondrial L188R, P11182",-0.647 ± 0.04
3,"Lipoamide acyltransferase component of branched-chain alpha-keto acid dehydrogenase complex, mitochondrial L188S, P11182",-0.656 ± 0.059
4,"Lipoamide acyltransferase component of branched-chain alpha-keto acid dehydrogenase complex, mitochondrial L188T, P11182",-0.519 ± 0.07
5,"Lipoamide acyltransferase component of branched-chain alpha-keto acid dehydrogenase complex, mitochondrial L188W, P11182",-0.513 ± 0.048
6,"Lipoamide acyltransferase component of branched-chain alpha-keto acid dehydrogenase complex, mitochondrial L201A, P11182",-0.315 ± 0.041
7,"Lipoamide acyltransferase component of branched-chain alpha-keto acid dehydrogenase complex, mitochondrial L201C, P11182",-0.243 ± 0.064
8,"Lipoamide acyltransferase component of branched-chain alpha-keto acid dehydrogenase complex, mitochondrial L201D, P11182",-0.374 ± 0.14
9,"Lipoamide acyltransferase component of branched-chain alpha-keto acid dehydrogenase complex, mitochondrial L201E, P11182",-0.038 ± 0.042
10,"Lipoamide acyltransferase component of branched-chain alpha-keto acid dehydrogenase complex, mitochondrial L201F, P11182",-0.319 ± 0.09
11,"Lipoamide acyltransferase component of branched-chain alpha-keto acid dehydrogenase complex, mitochondrial L201G, P11182",-0.275 ± 0.034
12,"Lipoamide acyltransferase component of branched-chain alpha-keto acid dehydrogenase complex, mitochondrial L201H, P11182",-0.32 ± 0.07
13,"Lipoamide acyltransferase component of branched-chain alpha-keto acid dehydrogenase complex, mitochondrial L201K, P11182",-0.256 ± 0.056
14,"Lipoamide acyltransferase component of branched-chain alpha-keto acid dehydrogenase complex, mitochondrial L201M, P11182",-0.141 ± 0.069
15,"Lipoamide acyltransferase component of branched-chain alpha-keto acid dehydrogenase complex, mitochondrial L201N, P11182",-0.119 ± 0.093
16,"Lipoamide acyltransferase component of branched-chain alpha-keto acid dehydrogenase complex, mitochondrial L201P, P11182",-0.602 ± 0.062
17,"Lipoamide acyltransferase component of branched-chain alpha-keto acid dehydrogenase complex, mitochondrial L201Q, P11182",-0.11 ± 0.049
18,"Lipoamide acyltransferase component of branched-chain alpha-keto acid dehydrogenase complex, mitochondrial L201R, P11182",-0.209 ± 0.034
19,"Lipoamide acyltransferase component of branched-chain alpha-keto acid dehydrogenase complex, mitochondrial L201S, P11182",-0.171 ± 0.061
20,"Lipoamide acyltransferase component of branched-chain alpha-keto acid dehydrogenase complex, mitochondrial L201T, P11182",0.035 ± 0.054
21,"Lipoamide acyltransferase component of branched-chain alpha-keto acid dehydrogenase complex, mitochondrial L201V, P11182",-0.096 ± 0.037
22,"Lipoamide acyltransferase component of branched-chain alpha-keto acid dehydrogenase complex, mitochondrial L201W, P11182",-0.683 ± 0.052
23,"Lipoamide acyltransferase component of branched-chain alpha-keto acid dehydrogenase complex, mitochondrial L206A, P11182",-0.08 ± 0.036
24,"Lipoamide acyltransferase component of branched-chain alpha-keto acid dehydrogenase complex, mitochondrial L206C, P11182",-0.555 ± 0.34
